Source: patent publication US20230129812A1, “COMPOSITIONS AND METHODS FOR TREATING PULMONARY HYPERTENSION” (Acceleron Pharma Inc., priority 2020, published 2023)

T1: GDF11 (Homo sapiens, UniProt O95390)
T1 sequence (O95390 299-407): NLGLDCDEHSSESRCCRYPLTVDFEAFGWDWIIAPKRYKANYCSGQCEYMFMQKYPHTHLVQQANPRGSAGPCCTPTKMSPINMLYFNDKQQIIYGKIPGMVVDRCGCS

T2: activin A (Homo sapiens, UniProt P08476)
T2 sequence (P08476 311-426): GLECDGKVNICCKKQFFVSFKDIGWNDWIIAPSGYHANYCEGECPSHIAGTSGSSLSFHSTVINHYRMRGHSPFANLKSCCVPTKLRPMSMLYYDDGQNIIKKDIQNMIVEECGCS

T3: ActA (Homo sapiens, UniProt P08476)
T3 sequence (P08476 311-426): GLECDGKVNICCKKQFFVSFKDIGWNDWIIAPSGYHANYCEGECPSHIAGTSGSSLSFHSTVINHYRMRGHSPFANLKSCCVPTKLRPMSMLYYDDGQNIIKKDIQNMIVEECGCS

T4: GDF8 (Homo sapiens, UniProt O14793)
T4 sequence (O14793 267-375): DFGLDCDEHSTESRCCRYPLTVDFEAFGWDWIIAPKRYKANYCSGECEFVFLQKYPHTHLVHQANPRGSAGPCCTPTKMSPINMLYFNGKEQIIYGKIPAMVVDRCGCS


Assays:
[1] = biological target: T1, GDF11; assay: A-204 reporter gene assay, pGL3(CAGA)12 luciferase; type: cell-based; design: key to GDF11 Inhibition Activity: +: Poor activity (roughly 1 × 10^−6 KI); ++: Moderate activity (roughly 1 × 10^−7 KI); +++: Good (wild-type) activity (roughly 1 × 10^−8 KI); ++++: Greater than wild-type activity; details: Table 9; cell-based A-204 assay
Text: (§1) An A-204 reporter gene assay was used to evaluate the effects of ActRIIB-Fc proteins and ActRIIB variant Fc fusion polypeptides on signaling by GDF-11 and activin A. Cell line: human rhabdomyosarcoma (derived from muscle). Reporter vector: pGL3(CAGA)12 (described in Dennler et al, 1998, EMBO 17: 3091-3100). The CAGA12 motif is present in TGF-beta responsive genes (e.g., PAI-1 gene), so this vector is of general use for factors signaling through SMADs.
(§2) Day 1: Split A-204 cells into 48-well plate.
(§3) Day 2: A-204 cells transfected with 10 ug pGL3(CAGA)12 or pGL3(CAGA)12(10 ug)+pRLCMV (1 pg) and Fugene.
(§4) Day 3: Add factors (diluted into medium+0.1% BSA). Inhibitors need to be preincubated with factors for 1 hr before adding to cells. Six hrs later, cells were rinsed with PBS and lysed.
(§5) This is followed by a luciferase assay.
(§6) Activity of ActRIIB-Fc proteins and ActRIIB variant Fc fusion polypeptides was tested in a cell-based assay as described above. Some variants were tested in different C-terminal truncation constructs. As discussed above, truncations of five or fifteen amino acids caused reduction in activity. […]

[2] = biological target: T2, activin A; assay: A-204 reporter gene assay, pGL3(CAGA)12 luciferase; type: cell-based; design: key to Activin Inhibition Activity: +: Poor activity (roughly 1 × 10^−6 KI); ++: Moderate activity (roughly 1 × 10^−7 KI); +++: Good (wild-type) activity (roughly 1 × 10^−8 KI); ++++: Greater than wild-type activity; details: Table 9; cell-based A-204 assay
Text: as §1, §2, §3, §4, §5, §6

[3] = biological target: T3, ActA; design: key to ActA binding relative to WT: *: No observed binding; −−: <⅕ WT binding; −: ~½ WT binding; +: WT; ++: <2x increased binding; +++: ~5x increased binding; ++++: ~10x increased binding; +++++: ~40x increased binding; details: Table 11, reproduced from WO2006/012627; cited from earlier work
[4] = biological target: T1, GDF11; design: key: *: No observed binding; −−: <⅕ WT binding; −: ~½ WT binding; +: WT; ++: <2x increased binding; +++: ~5x increased binding; ++++: ~10x increased binding; +++++: ~40x increased binding; details: Table 11, reproduced from WO2006/012627; cited from earlier work
[5] = biological target: T4, GDF8; assay: Biacore assay, ActRIIB-Fc captured with anti-hFc antibody, ligand injected (Example 8); type: binding; details: GDF8; Table 10
Description: Binding of certain ActRIIB-Fc proteins and ActRIIB variant Fc fusion polypeptides to ligands was tested in a Biacore™ assay.
The ActRIIB-Fc variants or wild-type protein were captured onto the system using an anti-hFc antibody. Ligands were injected and flowed over the captured receptor proteins.

Molecule	GDF11 Inhibition Activity [1]	Activin Inhibition Activity [2]	ActA binding relative to WT [3]	GDF11 binding relative to WT [4]	Koff [5]
R64 A24N 20-119: ActRIIB-Fc variation R64 A24N, amino acids 20-119 of SEQ ID NO:1 (protein, Fc fusion partner not cited) GRGENETRECIYYNANWELERTNQSGLERCEGEQDKRLHCYASWRNSSGTIELVKKGCWLDDFNCYDRQECVATEENPQVYFCCCEGNFCNERFTHLPEA	++ (Moderate activity (roughly 1 × 10^−7 KI))	++ (Moderate activity (roughly 1 × 10^−7 KI))	–	–	–
R64 A24N K74A 20-119: ActRIIB-Fc variation R64 A24N K74A, amino acids 20-119 of SEQ ID NO:1 (protein, Fc fusion partner not cited) GRGENETRECIYYNANWELERTNQSGLERCEGEQDKRLHCYASWRNSSGTIELVAKGCWLDDFNCYDRQECVATEENPQVYFCCCEGNFCNERFTHLPEA	+ (Poor activity (roughly 1 × 10^−6 KI))	+ (Poor activity (roughly 1 × 10^−6 KI))	–	–	–
D80M: soluble ActRIIB-Fc variant, as reported in WO2006/012627 (protein, left off: a dimerising Fc or GST) SGRGEAETRECIYYNANWELERTNQSGLERCEGEQDKRLHCYASWANSSGTIELVKKGCWLMDFNCYDRQECVATEENPQVYFCCCEGNFCNERFTHLPEA	–	–	*	*	–
D80N: soluble ActRIIB-Fc variant, as reported in WO2006/012627 (protein, left off: a dimerising Fc or GST) SGRGEAETRECIYYNANWELERTNQSGLERCEGEQDKRLHCYASWANSSGTIELVKKGCWLNDFNCYDRQECVATEENPQVYFCCCEGNFCNERFTHLPEA	–	–	*	*	–
WT (64A): soluble ActRIIB-Fc, wild type with 64A, as reported in WO2006/012627 (protein, left off: a dimerising Fc or GST) SGRGEAETRECIYYNANWELERTNQSGLERCEGEQDKRLHCYASWANSSGTIELVKKGCWLDDFNCYDRQECVATEENPQVYFCCCEGNFCNERFTHLPEA	–	–	(+)	(+)	–
F82A: soluble ActRIIB-Fc variant, as reported in WO2006/012627 (protein, left off: a dimerising Fc or GST) SGRGEAETRECIYYNANWELERTNQSGLERCEGEQDKRLHCYASWANSSGTIELVKKGCWLDDANCYDRQECVATEENPQVYFCCCEGNFCNERFTHLPEA	–	–	++ (<2x increased binding)	− (~½ WT binding)	–
R64 20-129: ActRIIB-Fc R64, amino acids 20-129 of SEQ ID NO:1 (protein, Fc fusion partner not cited) GRGEAETRECIYYNANWELERTNQSGLERCEGEQDKRLHCYASWRNSSGTIELVKKGCWLDDFNCYDRQECVATEENPQVYFCCCEGNFCNERFTHLPEAGGPEVTYEPP	+++ (Good (wild-type) activity (roughly 1 × 10^−8 KI))	+++ (Good (wild-type) activity (roughly 1 × 10^−8 KI))	–	–	–
A64 20-134: ActRIIB-Fc with alanine at position 64, amino acids 20-134 of SEQ ID NO:1 (protein, Fc fusion partner not cited) GRGEAETRECIYYNANWELERTNQSGLERCEGEQDKRLHCYASWANSSGTIELVKKGCWLDDFNCYDRQECVATEENPQVYFCCCEGNFCNERFTHLPEAGGPEVTYEPPPTAPT	+ (Poor activity (roughly 1 × 10^−6 KI))	+ (Poor activity (roughly 1 × 10^−6 KI))	–	–	–
R64N 20-134: ActRIIB-Fc variation R64N, amino acids 20-134 of SEQ ID NO:1 (protein, Fc fusion partner) GRGEAETRECIYYNANWELERTNQSGLERCEGEQDKRLHCYASWNNSSGTIELVKKGCWLDDFNCYDRQECVATEENPQVYFCCCEGNFCNERFTHLPEAGGPEVTYEPPPTAPT	+ (Poor activity (roughly 1 × 10^−6 KI))	+ (Poor activity (roughly 1 × 10^−6 KI))	–	–	–
R64 L79P K74A 20-134: ActRIIB-Fc variation R64 L79P K74A, amino acids 20-134 of SEQ ID NO:1 (protein, Fc fusion partner not cited) GRGEAETRECIYYNANWELERTNQSGLERCEGEQDKRLHCYASWRNSSGTIELVAKGCWPDDFNCYDRQECVATEENPQVYFCCCEGNFCNERFTHLPEAGGPEVTYEPPPTAPT	+ (Poor activity (roughly 1 × 10^−6 KI))	+ (Poor activity (roughly 1 × 10^−6 KI))	–	–	–
R64 L79P 20-134: ActRIIB-Fc variation R64 L79P, amino acids 20-134 of SEQ ID NO:1 (protein, Fc fusion partner not cited) GRGEAETRECIYYNANWELERTNQSGLERCEGEQDKRLHCYASWRNSSGTIELVKKGCWPDDFNCYDRQECVATEENPQVYFCCCEGNFCNERFTHLPEAGGPEVTYEPPPTAPT	+ (Poor activity (roughly 1 × 10^−6 KI))	+ (Poor activity (roughly 1 × 10^−6 KI))	–	–	–
ActRIIB(K74A 20-134)-hFc: ActRIIB-Fc variant with K74A substitution, residues 20-134 (protein) GRGEAETRECIYYNANWELERTNQSGLERCEGEQDKRLHCYASWRNSSGTIELVAKGCWLDDFNCYDRQECVATEENPQVYFCCCEGNFCNERFTHLPEAGGPEVTYEPPPTAPTGGGTHTCPPCPAPELLGGPSVFLFPPKPKDTLMISRTPEVTCVVVDVSHEDPEVKFNWYVDGVEVHNAKTKPREEQYNSTYRVVSVLTVLHQDWLNGKEYKCKVSNKALPVPIEKTISKAKGQPREPQVYTLPPSREEMTKNQVSLTCLVKGFYPSDIAVEWESNGQPENNYKTTPPVLDSDGSFFLYSKLTVDKSRWQQGNVFSCSVMHEALHNHYTQKSLSLSPGK	++++	++++	–	–	2.03e-05 s⁻¹
R64 P129S P130A 20-134: ActRIIB-Fc variation R64 P129S P130A, amino acids 20-134 of SEQ ID NO:1 (protein) GRGEAETRECIYYNANWELERTNQSGLERCEGEQDKRLHCYASWRNSSGTIELVKKGCWLDDFNCYDRQECVATEENPQVYFCCCEGNFCNERFTHLPEAGGPEVTYEPSATAPTGGGTHTCPPCPAPELLGGPSVFLFPPKPKDTLMISRTPEVTCVVVDVSHEDPEVKFNWYVDGVEVHNAKTKPREEQYNSTYRVVSVLTVLHQDWLNGKEYKCKVSNKALPVPIEKTISKAKGQPREPQVYTLPPSREEMTKNQVSLTCLVKGFYPSDIAVEWESNGQPENNYKTTPPVLDSDGSFFLYSKLTVDKSRWQQGNVFSCSVMHEALHNHYTQKSLSLSPGK	+++ (Good (wild-type) activity (roughly 1 × 10^−8 KI))	+++ (Good (wild-type) activity (roughly 1 × 10^−8 KI))	–	–	–
